We go through one molecule from US20090131309A1, “ICA512 COUPLES INSULIN SECRETION AND GENE EXPRESSION IN BETA-CELLS” (Technische Universität Dresden Medizinizche Fakultät Carl …, priority 2004, published 2009).

One assay has as its system GLE of rat insulin 1. In words: EMSA with biotinylated GLE oligonucleotide of rat insulin 1 promoter. Type of assay: binding. The settings on record: nuclear extracts of INS-1 cells expressing increasing amount of construct.
The test system of assay [1] is STAT5b. In words: Nuclear levels of STAT5b, PY-STAT5 and STAT3 in INS-1 cells (immunoblot). Type of assay: cell-based, rat. Here is the method:
(§1) Culture of INS-1 cells. INS-1 cells were grown as described^27. In some instances cells were pre-incubated for 1 hour in resting buffer (0 mM glucose, 5 mM KCl) and then for 2 or 6 hours in resting or stimulating (25 mM glucose, 55 mM KCl) buffers as described^7. Calpeptin (Calbiochem) was added in the last 15 minutes of the pre-incubation, and then for the entire following period before cells were harvested. Cells were stimulated with 20 nM human growth hormone (hGH) for 20 minutes following 18 hours incubation in low serum medium (LSM) containing RPMI-1640, 11 mM glucose, 0.5% FBS 25 mM HEPES, 1% penicillin-streptomycin and 0.05 mM β-mercaptoethanol. After washing, cells were either harvested or incubated in LSM for 6 additional hours. For immunoprecipitation cells were collected 1 hour after stimulation with hGH.
Cell extracts and western blotting. INS-1 cells and pancreatic islets were harvested at 4° C. in RIPA buffer [50 mM Tris-HCl at pH 8.0, 150 mM NaCl, 1% NP-40, 0.1% SDS, 0.5% sodium deoxycholate, and 1× protease inhibitor cocktail (Sigma)] to obtain total extracts. Insoluble material was removed by centrifugation. […] Chemiluminescence was developed using the Supersignal West Pico or Femto kits (Pierce) and detected with a LAS 3000 Bioimaging System (Fuji). Protein signals were quantified with the Image Gauge v3.45 software (Fuji). […]

The next assay deals with Insulin mRNA. In words: Insulin mRNA levels by real-time PCR in INS-1 cells. Format: cell-based, rat. Here is the method:
Time-course stimulation of INS-1 cells. INS-1 ceils were incubated for 1 hr. in resting buffer (2.8 mM glucose and 5 mM KCl), then for 6 hrs. in resting or stimulating buffer, with or without 40 μM calpeptin, and then again in resting buffer for up to 24 hrs. Total RNA for real-time PCR was collected at time 0, 2 and 6 hrs. during stimulation and at 2, 6, 12 and 24 hrs. during the following resting period.
Real-time PCR. Total RNA from INS-1 cells was isolated with Trizol (Invitrogen, Karlsruhe, Germany) according to the manufacturer's protocol. 1 μg of total RNA was used for the reverse transcriptase reaction, with 2 μM specific antisense primers for […] and insulin, as described (31). mRNA expression was measured by quantitative real-time PCR using the Brilliant SYBR Green QPCR (Stratagene, La Jolla, Calif.) with an Mx4000 Multiplex Quantitative Real Time PCR System (Stratagene).

In assay [2] the target is T1, STAT5b (Rattus norvegicus, UniProt P52632).
T1 construct: endogenous in cells; host or cells: INS-1 cells transiently transfected with ICA512-CCF-GFP
T1 sequence (P52632 1-786): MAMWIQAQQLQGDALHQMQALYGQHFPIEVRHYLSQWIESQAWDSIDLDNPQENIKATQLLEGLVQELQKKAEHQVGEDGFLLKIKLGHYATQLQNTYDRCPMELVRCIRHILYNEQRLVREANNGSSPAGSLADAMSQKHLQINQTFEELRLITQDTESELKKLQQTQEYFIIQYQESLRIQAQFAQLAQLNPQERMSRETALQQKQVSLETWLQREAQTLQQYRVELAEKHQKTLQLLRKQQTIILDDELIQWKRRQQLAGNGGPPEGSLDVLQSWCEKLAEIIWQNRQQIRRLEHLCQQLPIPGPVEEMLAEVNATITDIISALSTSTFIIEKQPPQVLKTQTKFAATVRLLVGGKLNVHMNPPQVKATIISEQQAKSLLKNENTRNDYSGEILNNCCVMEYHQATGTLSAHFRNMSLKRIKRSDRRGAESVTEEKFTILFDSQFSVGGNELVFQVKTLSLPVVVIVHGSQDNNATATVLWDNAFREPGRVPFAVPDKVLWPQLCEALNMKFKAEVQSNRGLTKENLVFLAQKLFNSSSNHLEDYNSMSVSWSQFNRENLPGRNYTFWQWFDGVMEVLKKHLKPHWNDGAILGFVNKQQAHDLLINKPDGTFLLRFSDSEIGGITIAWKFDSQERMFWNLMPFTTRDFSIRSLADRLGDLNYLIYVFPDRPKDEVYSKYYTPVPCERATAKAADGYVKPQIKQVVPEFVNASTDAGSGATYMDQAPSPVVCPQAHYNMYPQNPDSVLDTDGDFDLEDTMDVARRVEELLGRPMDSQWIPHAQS
In words: Co-immunoprecipitation with anti-GFP antibodies from INS-1 extracts. Type of assay: binding. The settings on record: hGH-stimulated INS-1 cells. Here is the method:
Immunoprecipitation. INS-1 cells were transiently transfected With one or more of the following constructs: GFP, ICA512-CCF-GFP, ICA512-CCF(K/A^754)-GFP, SUMO-1 and HA-SUMO-1. Anti-GFP IgGs were used for immunoprecipitations from total or cytosolic extracts. Immunoprecipitates were immunoblotted with anti-STAT5b, anti-PY-STAT5, anti-GFP or anti-HA antibodies. 600 μg and 200 μg protein were used as starting material for immunopreciptation of sumoylated ICA512 and STAT5, respectively.

The next assay concerns STAT5. In words: Firefly luciferase reporter assay for STAT activity (8GLE-CAS-FL) in INS-1 cells. The settings on record: co-transfected INS-1 cells, hGH stimulation. Type of assay: cell-based, rat. How it is done:
Firefly luciferase assays. INS-1 cells were co-transfected with 8GLE-CAS-FL and one or two of the following plasmids: pEGFP, ICA512-CCF-GFP, ICA512-CCF(K/A^754)-GFP and PIASy-GFP. Two days after transfection, cells were incubated in low serum medium for 18 hrs, then stimulated with 20 nM hGH for 20 minutes, and finally left in resting buffer for 6 additional hours. Cells were harvested in 500 μl lysis reagent for luciferase assays (Promega) and 10 μl were used for measurement of luciferase activity in a Berthold luminometer. Each sample was performed in triplicate and the data represent the mean of at least 2 independent experiments.

The test system of another assay is pro-ICA512. In words: Immunoblot for pro-ICA512 and ICA512-TMF in INS-1 cells. Type of assay: cell-based, rat. How it is done:
as §1
Cell extracts and western blotting. INS-1 cells and pancreatic islets were harvested at 4° C. in RIPA buffer [50 mM Tris-HCl at pH 8.0, 150 mM NaCl, 1% NP-40, 0.1% SDS, 0.5% sodium deoxycholate, and 1× protease inhibitor cocktail (Sigma)] to obtain total extracts. Insoluble material was removed by centrifugation. Cytosolic and nuclear extracts were prepared using the NE-PER Nuclear and Cytoplasmic Extraction Reagents (Pierce). Proteins were separated by 8-10% SDS-PAGE and immunoblotted with the following antibodies: mouse monoclonals anti-ICA512^7, anti-STAT5 (Santa Cruz), anti-γ-tubulin and anti-HA (Sigma); rabbit anti-PY-STAT5 and anti-STAT3 (Cell Signaling); affinity purified goat anti-GFP IgGs. Chemiluminescence was developed using the Supersignal West Pico or Femto kits (Pierce) and detected with a LAS 3000 Bioimaging System (Fuji). Protein signals were quantified with the Image Gauge v3.45 software (Fuji). Half the amount of nuclear extract proteins were immunoblotted relative to total and cytosolic extract proteins.

The subject of another assay is ICA512 mRNA. In words: ICA512 mRNA by real-time PCR in INS-1 cells. Format: cell-based, rat. The settings on record: transfected INS-1 cells vs cells expressing GFP alone. How it is done: PCR and real-time PCR. Cytosolic mRNA was isolated with the Oligotex Direct mRNA kit (Qiagen) according to the manufacturer's protocol. PolyA^+-enriched RNA was reverse transcribed with specific antisense primers for ICA512 and β-actin as described^8. Amplification of a 200 bp fragment flanking the GLE in the rat insulin1 (rINS1) gene promoter by PCR and real-time PCR was performed with the following primers: sense [NT], antisense [NT]. Amplification of ICA512 and β-actin was performed as described^16.

For another assay, the system named is INS-1 cells. In words: Uridine incorporation in INS-1 cells. Format: cell-based, rat. As to conditions: relative to GFP-transfected INS-1 cells.
Assay [3] deals with GLE of the rat insulin I gene promoter. In words: Chromatin immunoprecipitation, GLE of rat insulin I gene promoter. Format: binding. The settings on record: stable INS-1 cells, anti-GFP antibodies vs control IgG.

B1: ICA512-CCF-GFP: ICA512 cytoplasmic fragment generated by μ-calpain, residues 659-979, fused at its C-terminus with GFP (protein)
chain: SQFSDAAQASPSSHSSTPSWCEEPAQANMDISTGHMILAYMEDHLRNRDRLAKEWQALCAYQAEPNTCATAQGEGNIKKNRHPDFLPYDHARIKLKVESSPSRSDYINASPIIEHDPRMPAYIATQGPLSHTIADFWQMVWESGCTVIVMLTPLVEDGVKQCDRYWPDEGASLYHVYEVNLVSEHIWCEDFLVRSFYLKNVQTQETRTLTQFHFLSWPAEGTPASTRPLLDFRRKVNKCYRGRSCPIIVHCSDGAGRTGTYILIDMVLNRMAKGVKEIDIAATLEHVRDQRPGLVRSKDQFEFALTAVAEEVNAILKALPQ
modifications: left off: large carriers
notes: ICA512 cytoplasmic fragment generated by μ-calpain, residues 659-979, fused at its C-terminus with GFP
Consider B1, for which the “binding of a factor, conceivably STAT5b, to the GLE oligonucleotide” value in the assay on GLE of rat insulin 1 is “positive correlation”. Besides, the “STAT5b and STAT3 in the nucleus” value in the assay on STAT5b [1] (INS-1 cells transfected with increasing amount of construct) is listed as “dose-dependent increase”. Further, the “Nuclear STAT5b and nuclear PY-STAT5” value in the assay with STAT5b [1] (hGH 20 nM 20 min, ICA512-CCF-GFP vs GFP cells, AD/DA mutant vs ICA512-CCF-GFP cells) is recorded as “clearly increased”. In addition, the “insulin mRNA levels vs amount of construct expressed” value in the assay with Insulin mRNA (0.5-4 μg construct, 4 days in culture with 11 mM glucose) is “correlation between the increased expression of ICA512 (659-979)-GFP and the enhancement of insulin mRNA levels”. Moreover, the “Insulin mRNA increase” value in the assay with Insulin mRNA (resting INS-1 cells transiently transfected, vs electroporated cells) is given as 93%. Besides, the “further increase of insulin mRNA by stimulation” value with Insulin mRNA (stimulated transfected INS-1 cells) is 60%. Also, the “co-immunoprecipitation of STAT5b and PY-STAT5” value with STAT5b [2] was “co-immunoprecipitated”. For the same molecule, the “STAT5 transcription activity (8GLE-CAS-FL luciferase)” value in the assay on STAT5 is “partially restored”. In the assay with pro-ICA512 (transfected INS-1 cells vs GFP), the ICA512-TMF levels result is listed as “also increased”. Besides, in the assay with pro-ICA512 (transfected INS-1 cells vs cells expressing GFP alone), the pro-ICA512 increase amounted to 40%. In addition, the “ICA512 mRNA increase” value in the assay on ICA512 mRNA is 81%. Further, the “total incorporation of 3H-uridine” value in the assay on INS-1 cells came to 270%. For the same molecule, in assay [3], the “co-immunoprecipitation of GLE of the rat insulin I gene promoter” value is on record as “co-immunoprecipitated with anti-GFP antibodies”.
